# Measurements as given in the supplement of paper PMC10724198.
# ± gives the standard deviation of the averaged measurements.
# Tested on: Saccharomyces cerevisiae
# Test: protein stability index of tFT-peptide fusion (C-terminal peptide) (PSI (0-1 scale)); higher = more stable (slower turnover)
# Details: genetic background: wild type; temperature: 30 C
# 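Also: PSI is a weighted mean of sequencing reads over stability bins, variants kept only with over 10 reads, mCherry proximal and sfGFP distal, peptide attached via GGGS linker.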
row,Sequence,protein stability index
1,PPVPSLFPPPPH,0.674 ± 0.038
2,PPVRPRPDPACR,0.727 ± 0.031
3,PPVSPPLPPPPH,0.704 ± 0.03
4,PPVWSSLPPPPF,0.721 ± 0.018
5,PQLNRKAATPQN,0.641 ± 0.069
6,PQPLESTVDHRL,0.7192 ± 0.0062
7,PRAANRWASKAL,0.6941 ± 0.0069
8,PRETRPDEAQRG,0.726 ± 0.069
9,PREYGSYHNYHS,0.592 ± 0.047
10,PRFPPLPAHRVR,0.633 ± 0.047
11,PRFPQPSTLLPP,0.698 ± 0.021
12,PRHPRLPAPPAP,0.666 ± 0.034
13,PRHSPPPPLPAP,0.699 ± 0.014
14,PRHVISQCFSRT,0.6641 ± 0.005
15,PRIPPPIPPDTP,0.695 ± 0.045
16,PRKHSSRAINPI,0.721 ± 0.06
17,PRLCFPPPPAPA,0.688 ± 0.083
18,PRPPALPFPLLA,0.5329 ± 0.0036
19,PRPPHPPPASPP,0.58 ± 0.031
20,PRPPPPRPRSSP,0.667 ± 0.066
21,PRPPSPPPPSPA,0.808 ± 0.072
22,PRRLCLLPLLSP,0.662 ± 0.022
23,PRRPCDPLRAPH,0.737 ± 0.15
24,PRRPPPPRARFP,0.723 ± 0.026
25,PRSAMTRHSSCR,0.65 ± 0.017
26,PRSAPPPPNSLF,0.656 ± 0.035

row,Sequence,protein stability index
1,PRSPLSIFPSSL,0.692 ± 0.13
2,PRSPSPPRSPSP,0.66 ± 0.12
3,PRSSPEPTCQDP,0.647 ± 0.099
4,PRSTATSPPAPP,0.6678 ± 0.0019
5,PRTDIGGAGLGE,0.6961 ± 0.0019
6,PRTLRHSGRLAE,0.705 ± 0.016
7,PRTSQVNRFFRV,0.721 ± 0.13
8,PRYCVQQNPQDR,0.722 ± 0.044
9,PSALPPFQPGPL,0.747 ± 0.047
10,PSAPFPFPALGA,0.61 ± 0.028
11,PSAPLVPNLLAA,0.662 ± 0.016
12,PSAPPSLPFLPY,0.692 ± 0.032
13,PSDYDCHRKTFS,0.738 ± 0.01
14,PSFLPLPLPSSF,0.718 ± 0.028
15,PSFPHLPDFFIP,0.6779 ± 0.0019
16,PSFPSSPSPVTL,0.69 ± 0.035
17,PSGDYVVLTTVS,0.6901 ± 0.0038
18,PSGFLFPLSPPA,0.698 ± 0.01
19,PSGLLPILRLFL,0.681 ± 0.047
20,PSGNGAPRVHRK,0.65 ± 0.011
21,PSHLPRARRPPR,0.686 ± 0.011
22,PSHLWWDCIRKG,0.625 ± 0.049
23,PSHPAPGPSTRQ,0.673 ± 0.032
24,PSHPPLLLPLLL,0.714 ± 0.022
25,PSHSRSRPPPYL,0.742 ± 0.1
26,PSKMPNSTLRAE,0.682 ± 0.065

row,Sequence,protein stability index
1,PSKTQKQYKTVA,0.644 ± 0.094
2,PSLHRPPLLPCP,0.674 ± 0.013
3,PSLLLPPLPLYT,0.662 ± 0.031
4,PSLLPPATLLPI,0.718 ± 0.072
5,PSLLSHAPSPRR,0.682 ± 0.016
6,PSLPLPSPPPFP,0.643 ± 0.1
7,PSLPPHPPSPLP,0.742 ± 0.053
8,PSLPPPSPSTAP,0.713 ± 0.03
9,PSLPRLPLCPLP,0.704 ± 0.018
10,PSLSPLPPRTTS,0.732 ± 0.048
11,PSLSYSRPPHPS,0.681 ± 0.027
12,PSPGPPHPPPLF,0.713 ± 0.063
13,PSPGPPLPPPLF,0.7625 ± 0.0075
14,PSPLPGYFFTLS,0.627 ± 0.12
15,PSPLPPPAPHPL,0.752 ± 0.26
16,PSPLPSPPPPPP,0.625 ± 0.0074
17,PSPLPTALLTNR,0.644 ± 0.14
18,PSPLSPEHPLPI,0.72334 ± 0.00035
19,PSPPLLPPPLYT,0.658 ± 0.014
20,PSPPPFPPIPFC,0.708 ± 0.048
21,PSPPPPPPTTVL,0.718 ± 0.021
22,PSPPPSSPPPRS,0.686 ± 0.051
23,PSPPRPPLPART,0.763 ± 0.028
24,PSPPVPPLPPVF,0.55 ± 0.032
25,PSPPYPPPSLPH,0.69 ± 0.044
26,PSPPYSRPPLPP,0.698 ± 0.049

row,Sequence,protein stability index
1,PSPRISLSVFPC,0.646 ± 0.062
2,PSPRSPVPLTPS,0.708 ± 0.015
3,PSPRSSPPCSAS,0.693 ± 0.039
4,PSPSPNALALLR,0.71439 ± 0.00045
5,PSPSPPPLRSPL,0.623 ± 0.016
6,PSQPLPPSRHRP,0.616 ± 0.037
7,PSRPPALPPPAT,0.721 ± 0.014
8,PSRRPAVLPPLI,0.6719 ± 0.0015
9,PSRSCSAPLHPN,0.78 ± 0.056
10,PSRTTPARPPLT,0.662 ± 0.061
11,PSSEGHMEDTAA,0.684 ± 0.018
12,PSSPPPPSATPP,0.701 ± 0.091
13,PSSTLRLSPSSL,0.728 ± 0.023
14,PSSVPSTPTPPP,0.657 ± 0.076
15,PSTAPHLSPPPP,0.731 ± 0.022
16,PSTRPMLRSQQK,0.66 ± 0.013
17,PSVPPLQPPHSV,0.697 ± 0.031
18,PSVVPSLSPLFL,0.796 ± 0.062
19,PSVYAASPPLPP,0.68 ± 0.03
20,PSYSFQYRLIQD,0.712 ± 0.038
21,PTDFTPREAIGI,0.68 ± 0.087
22,PTGYPGPRMMVW,0.771 ± 0.3
23,PTHALLGCTCAN,0.681 ± 0.024
24,PTLRAPLRYGYL,0.675 ± 0.022
25,PTPLSRPPTNAA,0.634 ± 0.042
26,PTPPPGLCTPRH,0.702 ± 0.04

row,Sequence,protein stability index
1,PTPPSARAPPTT,0.686 ± 0.032
2,PTQVSGIVPAPR,0.7732 ± 0.0051
3,PTRIPRAPGPAQ,0.694 ± 0.025
4,PTRPPNEPTVHP,0.659 ± 0.066
5,PTRPSRPPRPPP,0.598 ± 0.026
6,PTRRPDGQLHPS,0.6707 ± 0.0027
7,PTRTAYHRQIPT,0.773 ± 0.043
8,PTRTSHLCLIPP,0.67 ± 0.075
9,PTSDSPSLALPC,0.71 ± 0.023
10,PTSPPPPPASPS,0.836 ± 0.18
11,PTTAPPIPLPSP,0.72 ± 0.035
12,PTTLCLSDRPQP,0.721 ± 0.0081
13,PTTNHLSNRHNI,0.685 ± 0.085
14,PTTRSAPPPCIA,0.676 ± 0.03
15,PTTTLYNPSPPN,0.742 ± 0.043
16,PVEGSTPPPGTT,0.614 ± 0.032
17,PVIGLSMEKARG,0.739 ± 0.1
18,PVLPFPSPPAAS,0.682 ± 0.078
19,PVLPPCLLPTPV,0.509 ± 0.093
20,PVLPRPNTQSRS,0.694 ± 0.027
21,PVLSRLHSEVFL,0.73 ± 0.081
22,PVPSPFMHRAAP,0.702 ± 0.015
23,PVPSRAQTRSRA,0.65 ± 0.073
24,PVPVLGPESSVH,0.67 ± 0.023
25,PVQNVGAEVRPA,0.683 ± 0.0094
26,PVSCTLTLPPPH,0.65 ± 0.0036

row,Sequence,protein stability index
1,PVSSPPRPAPSP,0.677 ± 0.025
2,PVVDVRFSFRCL,0.644 ± 0.038
3,PVWLLHIRPPIP,0.681 ± 0.058
4,PVYAYYVPCAPR,0.645 ± 0.091
5,PWANRVCFLHMK,0.678 ± 0.037
6,PWEVEAKNGRDR,0.717 ± 0.032
7,PWGGVLGWGLVG,0.608 ± 0.016
8,PWGSPLMACRSC,0.694 ± 0.02
9,PWTAGQGWATIP,0.688 ± 0.04
10,PWTAHVWSMVLG,0.552 ± 0.033
11,PWWGCTLGGGWG,0.737 ± 0.063
12,PYEPTIALPLLL,0.683 ± 0.058
13,PYFFSPIFTRTP,0.712 ± 0.027
14,PYFHRRMSLESF,0.703 ± 0.013
15,PYGFNPSANGSS,0.696 ± 0.068
16,PYHLFLSFSLSR,0.725 ± 0.011
17,PYPPPPALPSSF,0.667 ± 0.032
18,PYRLPRSLLFFP,0.6688 ± 0.0045
19,PYSHFVFGLCEL,0.75 ± 0.096
20,PYTPPTSSRDRS,0.661 ± 0.019
21,QADAPPGDTNTL,0.727 ± 0.041
22,QCASPRLSLGSP,0.703 ± 0.03
23,QCCPPEQLSNCS,0.681 ± 0.011
24,QCGYGKLSGGSQ,0.672 ± 0.034
25,QCNYCVQNLSSR,0.695 ± 0.019
26,QDSTNTPHTCRS,0.695 ± 0.06

row,Sequence,protein stability index
1,QEIRKEILLIKS,0.6 ± 0.098
2,QERRDQGRKGQD,0.673 ± 0.011
3,QESSDSRHATIR,0.624 ± 0.044
4,QFIGVGKVQRFG,0.59 ± 0.014
5,QFLGVGCLRGKR,0.692 ± 0.037
6,QFNVLPGQVGLV,0.635 ± 0.027
7,QFTLLEFVRSMG,0.613 ± 0.032
8,QGGGDREVRVSE,0.653 ± 0.058
9,QGKRRREDGIGG,0.711 ± 0.072
10,QGQAEREAERRS,0.6732 ± 0.0059
11,QGWDGSRRRPGL,0.706 ± 0.031
12,QGYWVKAVCASH,0.624 ± 0.023
13,QIKGNNLNIDKG,0.6721 ± 0.0031
14,QIQRLGGGGHCG,0.762 ± 0.1
15,QISLPDASLPPS,0.67 ± 0.079
16,QIYHIANPKILN,0.696 ± 0.055
17,QKDLDGSLANST,0.692 ± 0.025
18,QKHAAFLKRSRE,0.68 ± 0.024
19,QKIIEDNQNTGR,0.663 ± 0.016
20,QKKKKNNKRQKQ,0.588 ± 0.023
21,QKKKVKETRNER,0.672 ± 0.034
22,QKKNSPIPTNKN,0.695 ± 0.04
23,QKKSGKNGIRPK,0.701 ± 0.065
24,QKNKKRQTTYES,0.662 ± 0.0069
25,QKNWWLETVLRG,0.72 ± 0.023
26,QMKDGKTQKWQE,0.569 ± 0.048

row,Sequence,protein stability index
1,QNKKEKRHKTKT,0.648 ± 0.02
2,QPGRGIAFVCFD,0.735 ± 0.051
3,QPHPPRAVLTGP,0.6975 ± 0.005
4,QPLTYHPLLRRP,0.715 ± 0.051
5,QPPSCTSRPPYR,0.718 ± 0.096
6,QPRLLGPDRIDL,0.662 ± 0.036
7,QPTPRPSPRPAC,0.672 ± 0.025
8,QQISQIFHKQGK,0.851 ± 0.13
9,QQTSGVQERICL,0.744 ± 0.07
10,QREGPEKRTHGR,0.709 ± 0.038
11,QRGGVGWILGGV,0.675 ± 0.034
12,QRGRGGRHVTDI,0.71 ± 0.069
13,QRKGNLTKTEPV,0.676 ± 0.1
14,QRKLTFIKRYRV,0.67 ± 0.041
15,QRTQRGKQPGQR,0.679 ± 0.08
16,QSHALSLRKGMP,0.681 ± 0.052
17,QSLPLSAPAPAC,0.697 ± 0.037
18,QSPTFLTPLALA,0.653 ± 0.039
19,QSTRPHSHGCLG,0.748 ± 0.051
20,QTGGPDPSGPPK,0.693 ± 0.03
